Results on 1 substance are retold here after patent publication US20260207717A1, “METHODS FOR TREATING INFANTILE-ONSET POMPE DISEASE IN PEDIATRIC PATIENTS” (Amicus Therapeutics, Inc., priority 2022, published 2026).

The test system of data set [1] is normal and Pompe fibroblast cell lines. As to the kind of experiment: Cellular uptake of rhGAA (internalized GAA by 4MU-α-Glucoside hydrolysis). In kind it is cell-based. On the procedure:
The relative cellular uptake of ATB200 and LUMIZYME® rhGAA were compared using normal and Pompe fibroblast cell lines. Comparisons involved 5-100 nM of ATB200 according to the disclosure with 10-500 nM conventional rhGAA product LUMIZYME®. After 16-hr incubation, external rhGAA was inactivated with TRIS base and cells were washed 3-times with PBS prior to harvest. Internalized GAA measured by 4MU-α-Glucoside hydrolysis and was graphed relative to total cellular protein and the results appear in FIGS. 11A-11C.
ATB200 was also shown to be efficiently internalized into cells. […] ATB200 saturates cellular receptors at about 20 nM, while about 250 nM of LUMIZYME® is needed to saturate cellular receptors.

Data set [2] is described as follows: Thermostability assay using SYPRO Orange. It is filed as physicochemical. On the procedure: The stability of ATB200 in acidic or neutral pH buffers was evaluated in a thermostability assay using SYPRO Orange, as the fluorescence of the dye increases when proteins denature. […] As summarized in Table 10, the addition of miglustat increased the melting temperature (Tm) of ATB200 by nearly 10° C.

The target of the next data set is CIMPR (Homo sapiens, UniProt P11717). As to the kind of experiment: CIMPR affinity chromatography (bound vs unbound rhGAA by GAA activity). It is filed as binding. An excerpt: Multiple batches of the rhGAA according to the disclosure were produced in shake flasks and in perfusion bioreactors using CHO cell line GA-ATB200, the product of which is referred to as “ATB200.” Weak anion exchange (“WAX”) liquid chromatography was used to fractionate ATB200 rhGAA according to terminal phosphate and sialic acid. Elution profiles were generated by eluting the ERT with increasing amount of salt. The profiles were monitored by UV (A280 nm).
Chain of CIMPR (P11717 41-2491, species assumed): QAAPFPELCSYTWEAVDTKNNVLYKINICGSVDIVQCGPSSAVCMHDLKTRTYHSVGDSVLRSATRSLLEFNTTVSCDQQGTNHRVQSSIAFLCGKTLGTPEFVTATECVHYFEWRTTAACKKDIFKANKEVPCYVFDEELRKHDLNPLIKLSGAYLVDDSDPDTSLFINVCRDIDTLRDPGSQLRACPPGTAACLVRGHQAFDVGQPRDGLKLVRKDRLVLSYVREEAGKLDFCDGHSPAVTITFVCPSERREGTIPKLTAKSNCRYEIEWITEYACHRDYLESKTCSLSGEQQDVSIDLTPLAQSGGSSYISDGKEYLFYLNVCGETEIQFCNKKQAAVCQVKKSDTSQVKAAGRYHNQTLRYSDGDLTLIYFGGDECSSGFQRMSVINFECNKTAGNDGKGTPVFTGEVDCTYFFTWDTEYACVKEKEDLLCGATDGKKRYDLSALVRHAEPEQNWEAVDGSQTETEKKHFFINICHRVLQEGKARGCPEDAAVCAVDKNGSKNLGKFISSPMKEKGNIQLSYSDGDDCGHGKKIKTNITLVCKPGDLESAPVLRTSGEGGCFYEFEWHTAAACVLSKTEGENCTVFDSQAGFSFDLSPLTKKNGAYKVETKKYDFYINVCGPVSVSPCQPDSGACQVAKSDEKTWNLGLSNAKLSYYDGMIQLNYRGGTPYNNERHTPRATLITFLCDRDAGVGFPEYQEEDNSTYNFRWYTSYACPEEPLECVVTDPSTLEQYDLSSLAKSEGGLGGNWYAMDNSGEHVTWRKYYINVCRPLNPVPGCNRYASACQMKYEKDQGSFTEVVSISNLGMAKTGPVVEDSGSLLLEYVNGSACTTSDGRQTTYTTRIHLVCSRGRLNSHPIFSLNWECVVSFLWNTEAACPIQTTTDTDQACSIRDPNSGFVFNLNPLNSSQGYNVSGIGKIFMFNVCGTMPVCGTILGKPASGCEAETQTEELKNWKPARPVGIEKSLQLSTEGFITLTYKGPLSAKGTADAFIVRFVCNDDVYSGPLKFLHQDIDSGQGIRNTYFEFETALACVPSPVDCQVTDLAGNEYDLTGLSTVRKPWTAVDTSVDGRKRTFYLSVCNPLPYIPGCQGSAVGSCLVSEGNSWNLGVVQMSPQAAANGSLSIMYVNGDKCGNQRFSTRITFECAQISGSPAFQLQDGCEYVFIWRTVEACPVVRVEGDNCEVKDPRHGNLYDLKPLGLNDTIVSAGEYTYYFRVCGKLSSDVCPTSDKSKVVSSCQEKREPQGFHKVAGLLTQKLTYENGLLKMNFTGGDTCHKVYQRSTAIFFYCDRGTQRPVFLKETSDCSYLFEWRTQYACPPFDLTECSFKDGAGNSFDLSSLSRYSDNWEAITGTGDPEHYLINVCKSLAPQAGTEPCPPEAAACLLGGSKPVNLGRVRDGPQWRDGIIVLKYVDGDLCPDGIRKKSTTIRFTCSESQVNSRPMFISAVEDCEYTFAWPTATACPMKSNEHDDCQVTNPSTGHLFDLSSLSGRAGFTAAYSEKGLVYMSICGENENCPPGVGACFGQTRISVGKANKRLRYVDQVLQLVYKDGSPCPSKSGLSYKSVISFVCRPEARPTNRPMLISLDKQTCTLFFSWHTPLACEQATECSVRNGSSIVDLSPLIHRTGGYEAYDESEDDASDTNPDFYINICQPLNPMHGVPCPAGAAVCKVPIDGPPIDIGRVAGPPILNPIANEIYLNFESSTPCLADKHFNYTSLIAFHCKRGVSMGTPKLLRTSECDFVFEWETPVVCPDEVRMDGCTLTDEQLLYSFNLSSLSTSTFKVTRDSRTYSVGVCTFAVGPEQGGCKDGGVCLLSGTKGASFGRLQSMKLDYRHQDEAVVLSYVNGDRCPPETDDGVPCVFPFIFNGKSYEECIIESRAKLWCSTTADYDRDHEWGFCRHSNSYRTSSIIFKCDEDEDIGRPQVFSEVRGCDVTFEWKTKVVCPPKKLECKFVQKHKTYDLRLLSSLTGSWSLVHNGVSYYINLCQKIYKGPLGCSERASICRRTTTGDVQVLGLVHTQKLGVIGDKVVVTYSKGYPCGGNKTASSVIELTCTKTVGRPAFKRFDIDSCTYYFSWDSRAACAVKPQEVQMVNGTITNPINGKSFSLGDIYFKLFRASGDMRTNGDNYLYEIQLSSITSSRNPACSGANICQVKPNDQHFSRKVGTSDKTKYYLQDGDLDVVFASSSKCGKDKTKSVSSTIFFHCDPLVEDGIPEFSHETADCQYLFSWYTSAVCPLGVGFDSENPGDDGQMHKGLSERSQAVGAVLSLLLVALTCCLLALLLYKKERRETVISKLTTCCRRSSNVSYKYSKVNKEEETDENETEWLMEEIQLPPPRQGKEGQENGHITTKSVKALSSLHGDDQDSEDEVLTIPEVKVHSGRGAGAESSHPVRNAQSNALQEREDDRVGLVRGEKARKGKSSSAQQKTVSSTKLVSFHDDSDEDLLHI
To evaluate the ability of the conventional rhGAAs in MYOZYME® and LUMIZYME® to interact with the CIMPR, the two conventional rhGAA preparations were injected onto a CIMPR affinity column (which binds rhGAA having M6P groups) and the flow through collected. The bound material was eluted with a free M6 gradient. Fractions were collected in 96-well plate and GAA activity assayed by 4MU-α-glucosidase substrate. The relative amounts of unbound (flow through) and bound (M6P eluted) rhGAA were determined based on GAA activity and reported as the fraction of total enzyme. […] Indeed, only 27% of the rhGAA in MYOZYME® and 22% of the rhGAA in LUMIZYME® contained M6P that can be productive to target it to the CIMPR on muscle cells.

The test system of another data set is pediatric IOPD patients. The data set is described as follows: Tolerability and accumulation in 3 pediatric IOPD patients of the EAP. As to conditions: 30 mg/kg cipaglucosidase alfa in combination with miglustat, 3 pediatric IOPD patients in the EAP. In kind it is in vivo, human. On the procedure: The cipaglucosidase alfa dose of 30 mg/kg being evaluated in this protocol was determined from population PK modeling and simulation analyses that included pooled data from 96 adults and 11 pediatric subjects dosed at 20, 25, and 30 mg/kg, including 3 pediatric IOPD patients from the Expanded Access Program (EAP) (ages 1 to 3 years) at the 30 mg/kg dose level. The 30 mg/kg dose level in combination with additional effect from miglustat provided exposures that are well within the safety margin and multiples of exposure established by the juvenile toxicology no-observed-adverse effect-level (NOAEL) of 150 mg/kg.
This frequency of dosing is based on the systemic clearance of the cipaglucosidase alfa and miglustat, and the acuity/severity of disease in IOPD, as well as observations in 3 IOPD patients enrolled in the EAP (ERT-experienced patients in clinical decline).
A weekly frequency of 30 mg/kg cipaglucosidase alfa and miglustat administration will be evaluated in this study. A weekly 30 mg/kg cipaglucosidase alfa and miglustat dose has been administered in pediatric subjects with IOPD from the EAP. […] The rationale for weekly dosing in both cohorts is based on evidence supporting improved survival for IOPD patients receiving weekly dosing of standard of care ERT compared to every other week dosing (Ditters, Huidekper et al, 2021). […]

A further data set in a line: clinical. As to conditions: human, in vivo. On the procedure: At 10Y7M of age, the blood of the patient was collected to gather pharmacokinetic (PK) data for their treatment that included weekly administration of 20 mg/kg ATB200 and 130 mg AT2221.
Blood sampling of the patient was conducted to gather pharmacokinetic (PK) data for their treatment that included administration of 25 mg/kg ATB200 and 195 mg AT2221 biweekly.
At 12Y5M of age, the patient has been receiving ATB200 (20 mg/kg) and AT2221 (195 mg) biweekly for 1 year. […] At this time, the PK levels of both ATB200 and AT2221 were taken from the patient.

On to “ATB200: recombinant human acid α-glucosidase with a high content of N-glycans bearing mono-M6P and bis-M6P, produced from a GA-ATB200 cell line”, for which, in data set [1] (16-hr incubation), the “concentration that saturates cellular receptors” value is “about 20 nM”. The “internalization into normal and Pompe fibroblast cells” value in data set [1] (compared with LUMIZYME) is reported as “internalized to a greater degree”. Besides, the “uptake efficiency constant (Kuptake)” value in data set [1] (extrapolated, FIG. 11C) was 2-3 nm. For the same substance, the Tm in data set [2] (pH 5.2) came out at 67.3 °C; in data set [2] (pH 7.4), 56.2 °C; in data set [2] (pH 7.4 + 10 μM miglustat), 61.6 °C; in data set [2] (pH 7.4 + 30 μM miglustat), 62.9 °C; in data set [2] (pH 7.4 + 100 μM miglustat), 66.0 °C. Further, the “increase of melting temperature (Tm) by addition of miglustat” value in data set [2] (pH 7.4) is about 10 °C. Moreover, the “rhGAA that binds to the CIMPR (contains M6P)” value in the data set with CIMPR (fraction of total enzyme by GAA activity) was “more than 70%”. Besides, the CIMPR receptor binding with CIMPR (purified ATB200 rhGAA from different production batches (FIG. 5)) is given as at least 70%. For the same substance, the tolerability result in the data set on pediatric IOPD patients is “generally well-tolerated”. In addition, the “AUC relative to adult percentiles” value in “clinical” is reported as “within the adult 10th-90th percentile”. The “Cmax relative to adult percentiles” value in “clinical” is “within the adult 10th-90th percentile”.
